In paper PMC6763467 (2019):

B1: E. coli MtlR fused with His6-tag (ecHisMtlR), wild type [E. coli] / E. coli histidine phosphocarrier protein HPr (dephosphorylated, untagged) [E. coli] (parent complex)
chain 1: MVDQAQDTLRPNNRLSDMQATMEQTQAFENRVLERLNAGKTVRSFLITAVELLTEAVNLLVLQVFRKDDYAVKYAVEPLLDGDGPLGDLSVRLKLIYGLGVINRQEYEDAELLMALREELNHDGNEYAFTDDEILGPFGELHCVAALPPPPQFEPADSSLYAMQIQRYQQAVRSTMVLSLTELISKISLKKAFQK
chain 2: not shown

Variants of: B1
Experiment: His-tag pull-down (Talon metal affinity resin), SDS-PAGE band densitometry; 200 μg His-MtlR, 200 μg HPr, 20 μl EI-overproducing cell lysate, 2 mM MgCl2, 50 μl Talon resin; no PEP

Row | Variant | percent of parent
1 | chain 1 E108S, chain 1 E140S | 35%
2 | chain 1 E108S | 65%
3 | chain 1 E140S | 68%

Variants of: B1
Experiment: His-tag pull-down (Talon metal affinity chromatography), SDS-PAGE band densitometry; 200 μg His-MtlR, 200 μg HPr; 20 mM Tris-HCl (pH 7.5), 50 mM NaCl, 2 mM β-mercaptoethanol, 5% glycerol; wash 10 mM imidazole, elution 150 mM imidazole

Row | Variant | percent of parent
4 | chain 1 L112W | 95%
5 | chain 1 L112A | 47%
6 | chain 1 E108S | 76%
7 | chain 1 E140S | 67%
8 | chain 1 A115W | 45%
